{"source": "paper doi:10.1101/2024.09.20.614047", "about": "“The Role of ATP Synthase Subunit e (ATP5I) in Mediating the Metabolic and Antiproliferative Effects of Metformin” (bioRxiv, 2024)", "proteins": {"B1": {"name": "recombinant purified ATP5I (ATP synthase subunit e), N-terminal 6x-His-tagged (natural protein, human, UniProt P56385 1-69, looked up)", "chain": "MVPPVQVSPLIKLGRYSALFLGVAYGATRYNYLKPRAEEERRIAAEEKKKQDELKRIARELAEDDSILK", "notes": "No cleavage of the His tag is described; the gel filtration legend names the Nter-6×His-ATP5I construct; also called rATP5I; recombinant ATP5I; source: Rosetta E. coli BL21, purified (solubilised in 6 M guanidine, HisTrap FF, desalting column, concentrated); not shown: 6x-His, N-terminal, kept"}}, "target": "the molecule itself", "assay": "SEC; gel filtration of purified rATP5I (Superose 12 10/300 GL in legend B; calibrated Superose 6 10/300 GL in legend C); oligomeric state of the protein in solution"}
{"protein": "B1", "values": [{"measurement": "stoichiometry N", "result": "~10"}]}
